According to publication PMC10455477, “The Roles of Coenzyme A Binding Pocket Residues in Short and Medium Chain Acyl-CoA Synthetases” (Life, 2023):
Numbering of substitutions follows the chain as printed. Names and notes keep the numbering of the source.

B1: MacsMa (Methanosarcina acetivorans C2A) (protein)
chain: MTSLLSQFVSKTDFESYEDFQENFKILVPENFNFAYDVVDVYARDSPEKLAMIWCDDYGNEKIFTFKDLKYYSDKAANFFVKHGIGKGDYVMLTLKSRYDFWYCMLGLHKLGAIAVPATHMLKTRDIVYRIEKAGLKMIVCIAEDDVPEQVDEAHAECGDIPLKKAKVGGDVLEGWIDFRKELEESSPIFERPTGEVSTKNEDICLVYFSSGTAGFPKMVEHDNTYPLGHILTAKYWQNVEDDGLHYTVADSGWGKCVWGKLYGQWIAGCAVFVYDYDRFEAKNMLEKASKYGVTTFCAPPTIYRFLIKEDLSHYNFSTLKYAVVAGEPLNPEVFNRFLEFTGIKLMEGFGQTETVVTIATFPWMEPKPGSIGKPTPGYKIELMDRDGRLCEVGEEGEIVINTMEGKPVGLFVHYGKDPERTEETWHDGYYHTGDMAWMDEDGYLWFVGRADDIIKTSGYKVGPFEVESALIQHPAVLECAITGVPDPVRGQVIKATIVLTKDYTPSDSLKNELQDHVKNVTAPYKYPRIIEFVPELPKTISGKIRRVEIRDKDQSQ
B2: MacsMa (Methanosarcina acetivorans C2A; G462A) (protein)
chain: B1 chain with G459A
notes: recombinant, E. coli Rosetta Blue (DE3) placI; His-Trap purified
B3: MacsMa (Methanosarcina acetivorans C2A; K464A) (protein)
chain: B1 chain with K461A
notes: as for B2
B4: MacsMa (Methanosarcina acetivorans C2A; K464R) (protein)
chain: B1 chain with K461R
notes: as for B2
B5: MacsMa (Methanosarcina acetivorans C2A; K522R) (protein)
chain: B1 chain with K519R
notes: as for B2

Key:
MacsMa = target: T1, MacsMa (Methanosarcina acetivorans, UniProt Q8TLW1); assay: inhibition of propionyl-adenylate synthetase activity; type: biochemical; conditions: read-out: % inhibition at 15 mM
T1 construct: gene MA_2912; recombinant, E. coli Rosetta Blue (DE3) placI; His-Trap purified

AcsMt = tested on: T2, AcsMt; assay: hydroxamate assay, A540; type: biochemical, Methanothermobacter thermautotrophicus; conditions: acetate and MgATP saturating; 65 °C; apparent Km
T2 construct: gene acs; recombinant, E. coli Rosetta Blue (DE3) placI; His-Trap purified
Source text: hydroxamate assay, A540 on AcsMt

purified protein [1] = substrate: CCC(=O)O; assay: purified protein; conditions: no CoA, ATP saturating, 55 °C, apparent Km
purified protein [2] = substrate: Nc1ncnc2c1ncn2[C@@H]1O[C@H](COP(=O)(O)OP(=O)(O)OP(=O)(O)O)[C@@H](O)[C@H]1O; assay: purified protein; conditions: 2-methylbutyrate and CoA saturating, pH 7.5, 55 °C, apparent Km
purified protein [3] = substrate: CC(C)(COP(=O)(O)OP(=O)(O)OC[C@H]1O[C@@H](n2cnc3c(N)ncnc32)[C@H](O)[C@@H]1OP(=O)(O)O)[C@@H](O)C(=O)NCCC(=O)NCCS; assay: purified protein; conditions: 2-methylbutyrate and ATP saturating, pH 7.5, 55 °C, apparent Km
[4] = substrate: CC(C)(COP(=O)(O)OP(=O)(O)OC[C@H]1O[C@@H](n2cnc3c(N)ncnc32)[C@H](O)[C@@H]1OP(=O)(O)O)[C@@H](O)C(=O)NCCC(=O)NCCS; assay: 2-methylbutyryl-CoA synthetase activity; type: biochemical, Methanosarcina acetivorans; conditions: 2-methylbutyrate and ATP saturating, pH 7.5, 55 °C, apparent Km
Source text: 2-methylbutyryl-CoA synthetase activity on MacsMa

Molecule	Km [4]	kcat [4]	other results
CC(C)(COP(=O)(O)OP(=O)(O)OC[C@H]1O[C@@H](n2cnc3c(N)ncnc32)[C@H](O)[C@@H]1OP(=O)(O)O)[C@@H](O)C(=O)NCCC(=O)NCCS [CoA]			inhibition at 15000 µM (MacsMa): ~40%
CC(C)(COP(=O)(O)OP(=O)(O)OC[C@H]1O[C@@H](n2cnc3c(N)ncnc32)[C@H](O)[C@@H]1O)[C@@H](O)C(=O)NCCC(=O)NCCS [3′-dephospho CoA]			Km (AcsMt): 2160 ± 500 µM
B1			Km (purified protein [1]): 29100 ± 300 µM; kcat (purified protein [1]): 10.67 ± 1.34 s⁻¹; Km (purified protein [2]): 4210 ± 110 µM; Km (purified protein [3]): 4090 ± 450 µM; kcat (purified protein [3]): 2.15 ± 0.1 s⁻¹
B2	2090 ± 60 µM	0.41 ± 0.01 s⁻¹	
B3	2190 ± 180 µM	0.55 ± 0.03 s⁻¹	
B4	1380 ± 140 µM	0.46 ± 0.1 s⁻¹	
B5	7180 ± 290 µM	1.07 ± 0.02 s⁻¹	
